Experiment: soluble on expression in E. coli; label from the status in PepcDB or PDB records

Soluble on expression in E. coli, not soluble:
MGSDKIHHHHHHMSSRNRIIWREGLFIKPQHFQQQQRHTDYALHARLSALSDYFYGLQSLAINEEYLNFGRIALVNASGVMPDGTVFNIPGDDALPLPLEITDVALANQKVYLALPLAVNGVSEVGQPGQGIASRLQSHRHDVRDLHSDGGDIVSLEVGKVSLRLMLDRDDRSAYASLAIANILDKRPDGGLILDPNFMPCSISVTAIPTLKRFLGESAGLVAERARSLAQRIAAPGQQGVADVAEFMMLQLLNRAQPKLSHLARLGTLHPERLHETLVELCGELMTFTDESRLPPEFPAYRHEHQQASFEPLMMALRQALSTVLSPRAVSIQLKKQPYGVMVAMVGDAELMTSAEFVLAVRARMPQEHLRKQLLQQTKIASSEKIRELISLQLPGIPLLPLPVAPRQLPYHAGYSYFQLDRQSPAWQVLVSGNTLAFHIAGEFPELDMQLWAIRGQ, MGSDKIHHHHHHMSTAKTLTLEMHLGDLMIGELSFDATADTFAVHYTKDWQQSGFPLSPTIPLDGTGTSNQISMFLVNLLPENKGLDYLIESLGVSKGNTFALIRAIGLDTAGAIAFVPKGALLPETQLRPIKAEEVIQRIEDPTMWPMEIWDGKPRLSVAGVQPKLNLFYNGKEFAFAEGTLSSTHIVKFEKYHHLVINEFITMRLAKVLGMNVANVDIVHFGRYKALCVERFDRRNIPGEQRVLRRHIVDSCQALGFSVSKKYERNFGTGRDVKDIREGVSFNRLFSLAAKCRNPVAAKQDMLQWALFNLLTGNADAHGKNYSFFMTPSGMEPTPWYDLVSVDMYEDFEQQLAMAIDDEFDPNSIYAYQLAAFMDGLGLPRNLLISNLTRIARRIPQAIAEVILMLPPLDEDEASFVAHYKTQLLARCERYLGFVDEVRDVEV, MGSDKIHHHHHHMSTLENVHASPIHFMSKPAEIEHTQRPLNEASHAPGYIYGDPDVLRREKERIFMKDWLCIAHVDELPNPGDFVTHTVIDEPVLIVRNRSGVLQAFYNQCRHRGVEVAEGRGNAKIFKCPYHAWSYDLDGKLIGVPFMKEAQGFDQKNCSLKPVRLDTWGGFIHISFDPDAEPLSSYMAEYEQEFGMLRQGELRLGLRWETDFDCNWKFVYENLMDIYHVGVTHADTIGRYQDQSSYRYLQLPRGRASIHYRAKTMSETGSSLFGRLPWIDDDSFARIGYLPPNLTMLARCDYVRPVTHWPTAVNRTHSVAYFLFPEDKIADPQFQEKIQTYVKFVEQVLDEDRGMILSLQRAMNTRGFEPGRMSFMENAIHHALGYHLERLFGPQSA, MGSDKIHHHHHHMSTNPSLPWHAGELALQARVGVAAKMEDVGRRVMRDYMPDQHREFFAQMPFVVLGTVAPDGRVWATLRAGRPGFLQSPDARILELRLPREAADPADAGMEDGQPLGLLGIDLMTRRRNRMNGVLRRADRDGADLRIDVVQSFGNCPRYIQQRAFRFTRDPSEQTTIAPLAMGALDSRARALIASADAFFVASYADRPEAGRQVDVSHRGGEPGFVRIDADGGLTIPDFAGNLFFNTLGNFMVNPAAGVTFADFDTGELLQMSGRVEVIVDSPEIAAFQGAERLWRFFPEKIVRREAALPMRWARAGDAADE, MGSDKIHHHHHHMSTQTSIEWTEMTWNPIVGCTKVSPGCKHCYAENMAHRLQAMGTPGYENGFKLSLRPEKLREPLQRKKPTIYFVNSMSDLFHEKVPDHYIDQVFEVIREATQHTFQILTKRAERLADYFSKRTPPTNAWLGVSVEDKAYGVPRIDCLRRVNATIRFLSAEPLLEDLGEIDLTDIHWVIVGGESGNKARPMQQEWVDNIHRQCDVSGSAFFFKQWGGWGADGVKRSKKANGRLLNGQTWDEIPLLNLA, MGSDKIHHHHHHMSVMETTHRQYRQTLIFGLIRIVEELFPQEEIKIQYSILDGIYCELENSPLSPREVAQIEEKLHHWLESKPKIMSCAEEDGFFHTKVNHIFVKSLYPAMHPADTYYPFTLIFYHPGFILLFSNPEHPCELPNFVPPEKLAATFLESQRWVENLHLDKVGSINLNIRKGKTTELISLAEALHEKKISLIADRILEQRRNLRIILISGPSSSGKTTFAQRLSTQLQVNGIRPIALSLDNYFCDREHTPLDEYGQYDFEALEALDLPLLNQHVKALIHGEEIECPIFDFVAGRRQPEGIRMKLEPDEILVMEGIHALNPRLLPSLERSHLFKIYISALFQPNIDTHNRISTTDVRLIRRLVRDDKYRGINPEKTLNQWSSVRRGENNNIFPYQEEADVMFNSSLLYELNALKAYAEPLLISIPKDHPYYATASHLLRVLYHFEILDIAKVPFNSILREFIGGGIY, MGSDKIHHHHHHMSVTSTTSQNSLFDVIVIGSGIGGLVTATQLAAKGAKVLVLESYIIPGGSAGYFERQGYRFDVGASMIFGLGNRGTTNLLTRALQAVNSSVEAIADPVQIHYHLPSNLNLKVDRVYDKFLQNLAAYFPHETKGIRRFYDECWQVFKCLNRMDLLSLEEPRYLLRTFLQHPLACLGLLKYLPQNVGDIARRYIRDPELLKFIDIECYCWSVVPAAMTPMINAGMVFSDRHYGGVNYPKGGVGQIAQKLAEGLEKVGGEIRYQAKVAKIITEKYRAVGVQLTNGEIYRSKRIVSNATRWDTFEKLLPVDKMPSNEKDWQHSYKKSPSFLSLHMGVKESVLPQGTECHHIILEDWQNMTQAEGTLFVSIPTLLDPELAPEGCHIIHAFTPHWINDWQGFSVSDYEAKKEETAWRIIDRLEKIFPGLDAGLDYLEVGTPRTHRRFLGREDGTYGPIPRRKLRGLLSMPFNRTAIKGLYCVGDSTFPGQGLNAVAFSGFACAHRIAVDLGL, MGSDKIHHHHHHMSWKLSIIRLLNKSLVPNQQRALVVFTVLLLCACGKAKIPFSPITVSQTPVTTAQFTDDIDTVSTLEAKEEVHLAAQASGRIIELKIDQGDQVQPGQMLVVLDQAQIRAELADFKAQEQKNKLNWQRYEFLVPQGAASALDRDEYKAQYIASREKVKATEATLAYSNLRSPISGIVADVDVKVGDVIRSGDPFTKLIRNNRLFARVEVPATFSDRIKIGLPVFLNKTGSSDVMATGEINSVGPTVNRTTQGLLVKAAFENANGSLRNGQRLRTRVQLDTREELSVPFAAVTQTSGQSFVYRVGSFQELEDFSGNISLDKLRKLPPSTRFALQTPVTLGKLQKQRYAVTKGLKLGEQVITTNLLKLRHGMPISVKN, MGSDKIHHHHHHMTAPHTETDSTQQFLDSMPELKPGEKFQFACHPGVACFNACCSDLTMPLSPYDVLRLRQETGQDSEGFISTFARVETYPDTNFPILYMKMTDGPVRPCPFVSQAGCQVYPNRPAACRTYPLGRGTRVDAQGRLVEQYFIIAEQHCHGFAEEPVWTSEEWLQDQGLARYNYFGDRYTRLMGRAMETGLVLTQKQLTLCLLALYEADRFGAFISGVNLFARLNVSAQEQARILEDEEARLEFGFDWTELVLFGDNERLQVVNP, MGSDKIHHHHHHMTAQNGQDVWHEDILDDSAIAVLSYPIGEMQRDQLHSHGYHQIAMCEQPGATLLLGSQVVSIPWNGALLVPSGTDHALTSETRCVIRCIYFKAALPSTSIGSLFLNRLTKELIKEISTSYVTERSRRLMEACLYDQIGQLLWSSGSGMMPPSRSLRVICKHIFDTPEDDTPVATLAKDAGLSERSLRRLARDELGCTISQIRTRCRIYKATQLLQAGVPVKLIAADVGYQSNSAFFSAFREIMGMSPARFQAECAASRSLSHLRLK, MGSDKIHHHHHHMTEEKESLAGRQWLVDKVDNSIKEGQTAIPAIENGICQRCGSSCWVRLPSGFLYCRACVGLGRLDEGKLLVRQAAGSHYPARAGMTWTGQLQERQEGVSRFLLEKFAAKEDCLVEAVTGAGKTEMIFPLLAEAFSCGCRVAIATPRIDVVNELYPRLVAAFGEVEIGKYHGREEKEAANEQLVICTTHQLLKYYQAFDLLIIDEIDSFPYAGNPQLHFAAGNAVKKTGSQVFLTATPPEDLLKAARQGKLAIVRLNRRFHCYPLPVPRLDLYVKPFLTKGRLHPKLARRIKMAAKSGHPLLVFLPRIAQMPQYFAAVKRLLPDLRLATVYAQDPDRLEKVEKFRKGDLDLLLTTTILEGGVTLSMSG, MGSDKIHHHHHHMTEQVMNKHQLETGLSILGAPVPGQEIVLNEGALSLLEVLCDQFAAEVPKLLEMRRQKQELIDKGSLPDFLPETRAIRDGDWQIRGIPQDLQDRRVEITGPVDRKMIINALNANVKVFMADFEDSLAPSWIKVIQGQINLRDAVRGEIEYTAPETGKHYTLDDDPAVLIARVRGLHLKEKHVAFNGEAIPGALFDFCLYFYHNYRQLLEKGSGPYFYIPKLESHVEARWWAKVFAYVEERFCLTPGTIKCTCLIETLPAVFEMEEILYELRSNIVALNCGRWDYIFSYIKTLKKHSDRILPDRQAVTMDKPFLSAYSRLLIKTCHKRGALAMGGMAAFIPAKDQAQNEAVLVKVRGDKELEARNGHDGTWVAHPGLADTAMGIFNEYIGEDHVNQLHITRDVDAPILARDLLMPCEGERTESGMRLNIRIALQYIEAWIRGNGCVPIYGLMEDAATAEISRTSIWQWIQHEQKLSNGKLVTKALFKEMLVEELANVKLEVGPDRFTHGSFTQAAVLLEEITTADELVDFLTLPGYEILTQGDNA, MGSDKIHHHHHHMTESSDYESVQVFIGVDVGKDTHHAVAINRSGKRLFDKALPNDENKLRSLISDLKQHGQILLVVDQPATIGALPVAVARSEGVLVGYLPGLAMRRIADLHAGEAKTDARDAAIIAEAARTLPHALRTLKLADEQIAELSMLCGFDDDLAAQTTQASNRILGLLTQIHPAPERVLGPRLEHPAVLDLLQRYPSPEKLASLGEKKLAAQLCKLAPRLGKRLAADIAQALAEQTVVVPGTNAAAVVLPRLALQLITLRKQRDEVALEVEQRVLAHPLYPVLTSMPGVGVRTAARLLTEVACRAFASAAHLAAYAGLAPVTRRSGSSIRGEHPSRRGNKALKRALFLSAFTALRDPLSRAYYTRKMSQGKRHNQVLIALARRRCDVLFAMMRDGTFYTPQGS, MGSDKIHHHHHHMTGEKVHLTGAKETLLMTLYGKALESRLPHSLLGDHFADEAVRKIDYDFSRLKVDENLGIGLAIRAKTLDVRVEDFLARNPGAIVLHLGCGLDTRVFRVDPPPGVDWFDADYPQVIELRRKLYPPRDHYHLIASSVTEPGWLAEVPRNRPAMVVAEGLTPYLPADEGLRLVSRLVSHLAGGELMFDAYSRFGLTLLRLSPTIKATGAEVHWAIDDPHELELAVPKLRFVEDISAYMPEHAARMGWSAKLFVRLWKHIPALRKVGRLLRYRF, MGSDKIHHHHHHMTGRRIAIAIDSLAGGGAEKVMLTLASTLVELGHEPHLLVLQQDCHHEIPPGLQVHFCFGGDERNIDGFWRTRGSVQKLQQWITGLEERFGKFELFLSNLDKTNLLMTRTGVAPLYCVVHNSIEEELQRQRKLGPFAYLSMLRAKKSLNGQHLITVSKGIANEIAEVGRVQPASVQTIYNPFELEKIQHQASQTADALPKGDYIIHVGRFARQKRHDVLFAALKQMRNPLPLVLLCNNKKKAIKSARKFGVEDRVIIPGFQTNPYPWIKGARLLALSSDYEGLPTVLIESLAVGTPVVSTDCRHGPKEILTGALRRFLVPRRDPAALAMAMDEALTHYPDCDDAEILTQVGAAAVAGKYLKLLTA

Source: the DeepSol protein solubility set
